In US20110171749A1:

Molecular target: streptavidin (UniProt P22629)
Assay: polyaniline polymeric wire biosensor, streptavidin on NC membrane, pulse mode voltammetry

resistance: 4.3 kΩ
Substance: biotin conjugate goat anti-mouse IgG (whole molecule), conjugated with magnetic composite Fe2O3/polyaniline particles (antibody)
